Key:
KirBac3.1-SCS [1] = target: T1, KirBac3.1-SCS (Paramagnetospirillum magnetotacticum, UniProt D9N164, C71S/C262S); assay: ACMA liposome K+ flux assay; single-channel recording; PEGylation gel shift; format: biochemical; settings: covalent, at Cys119 near fenestration; activator; pH 8.5 (flux assay)
T1 construct: prokaryotic Kir channel, native Cys119 kept as only cysteine, expressed in E. coli C41(DE3), Co2+ IMAC, homotetramer, reconstituted in liposomes or bilayers; PDB 6O9U is the native parent, 7N9L/7N9K are SCS and SCS-L124M
T1 sequence (D9N164 1-295 C71S/C262S): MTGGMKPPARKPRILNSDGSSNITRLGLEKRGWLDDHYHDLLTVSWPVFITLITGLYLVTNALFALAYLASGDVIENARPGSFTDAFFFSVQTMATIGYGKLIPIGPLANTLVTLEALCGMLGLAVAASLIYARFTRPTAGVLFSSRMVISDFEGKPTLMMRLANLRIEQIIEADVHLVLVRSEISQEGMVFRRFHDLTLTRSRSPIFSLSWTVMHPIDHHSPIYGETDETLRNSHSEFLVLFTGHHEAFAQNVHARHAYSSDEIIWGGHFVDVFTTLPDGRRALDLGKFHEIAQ

KirBac3.1-SCS [2] = target: T1, KirBac3.1-SCS; assay: single-channel recording in planar lipid bilayer; format: biochemical; settings: covalent, at Cys119 near fenestration; pH 7.4, 23 C, -80 mV
[3] = target: the molecule itself; assay: native MS; 200 mM ammonium acetate pH 8.0, 0.5% C8E4 (2x CMC); modified Q-Exactive
[4] = target: the molecule itself; assay: crystal structure; sitting drops, vapour diffusion, 4 mg/ml protein; PEG 4,000, PEG 8000, PEG 400, 90 mM HEPES pH 7.5, 1 mM TCEP and 50 mM EDTA or 10 mM CaCl2
[5] = target: the molecule itself; assay: SEC; Superdex 200 10/30 in 20 mM TRIS pH 8.0, 150 mM KCl, 0.02% (w/v) DDM; fractions of the tetramer collected

CCCCCCCCCCSS(C)(=O)=O [decyl-MTS]
ACMA liposome K+ flux assay; single-channel recording; PEGylation gel shift (KirBac3.1-SCS [1]): bound decyl chains (C119-decyl) increased activity relative to wild type

CCCCCCCCSS(C)(=O)=O [octyl MTS-reagent (C119-octyl)]
single-channel recording in planar lipid bilayer (KirBac3.1-SCS [2]): channels derivatised with one of three MTS-reagents to titrate the effect of chain length

B1: KirBac3.1 (wild type prokaryotic Kir channel) (natural protein)
chain: MTGGMKPPARKPRILNSDGSSNITRLGLEKRGWLDDHYHDLLTVSWPVFITLITGLYLVTNALFALAYLACGDVIENARPGSFTDAFFFSVQTMATIGYGKLIPIGPLANTLVTLEALCGMLGLAVAASLIYARFTRPTAGVLFSSRMVISDFEGKPTLMMRLANLRIEQIIEADVHLVLVRSEISQEGMVFRRFHDLTLTRSRSPIFSLSWTVMHPIDHHSPIYGETDETLRNSHSEFLVLFTGHHEAFAQNVHARHAYSCDEIIWGGHFVDVFTTLPDGRRALDLGKFHEIAQ
notes: KirBac3.1, prokaryotic inward rectifier K+ channel; Co-purifies with phospholipids (PG, PE); also called native KirBac3.1; wild type KirBac3.1; source: E. coli C41(DE3), purified (Co2+ IMAC, Superdex 200 SEC, in DDM)
stoichiometry N [3]: 4

B2: KirBac3.1-SCS (C71S-C262S background) (natural protein)
chain: MTGGMKPPARKPRILNSDGSSNITRLGLEKRGWLDDHYHDLLTVSWPVFITLITGLYLVTNALFALAYLASGDVIENARPGSFTDAFFFSVQTMATIGYGKLIPIGPLANTLVTLEALCGMLGLAVAASLIYARFTRPTAGVLFSSRMVISDFEGKPTLMMRLANLRIEQIIEADVHLVLVRSEISQEGMVFRRFHDLTLTRSRSPIFSLSWTVMHPIDHHSPIYGETDETLRNSHSEFLVLFTGHHEAFAQNVHARHAYSSDEIIWGGHFVDVFTTLPDGRRALDLGKFHEIAQ
notes: KirBac3.1 with two native cysteines mutated to serine; Mutant cDNA bought from Genscript; source: E. coli C41(DE3), purified (Co2+ IMAC, Superdex 200 SEC, in DDM)
binding result [4]: binds

B3: KirBac3.1-SCS derivatised with hexyl-MTS at Cys119 (natural protein)
chain: MTGGMKPPARKPRILNSDGSSNITRLGLEKRGWLDDHYHDLLTVSWPVFITLITGLYLVTNALFALAYLASGDVIENARPGSFTDAFFFSVQTMATIGYGKLIPIGPLANTLVTLEALCGMLGLAVAASLIYARFTRPTAGVLFSSRMVISDFEGKPTLMMRLANLRIEQIIEADVHLVLVRSEISQEGMVFRRFHDLTLTRSRSPIFSLSWTVMHPIDHHSPIYGETDETLRNSHSEFLVLFTGHHEAFAQNVHARHAYSSDEIIWGGHFVDVFTTLPDGRRALDLGKFHEIAQ
modifications: hexyl chain from hexyl-methylthiosulfonate on Cys119
notes: KirBac3.1 on the otherwise cysteine-less SCS background (C71S-C262S), native Cys119 kept and derivatised; also called C119-hexyl; source: E. coli C41(DE3), purified, reacted with hexyl-MTS, re-purified by SEC
binding result [5]: binds

B4: KirBac3.1 L124M (on the C71S-C262S background) (natural protein)
chain: MTGGMKPPARKPRILNSDGSSNITRLGLEKRGWLDDHYHDLLTVSWPVFITLITGLYLVTNALFALAYLASGDVIENARPGSFTDAFFFSVQTMATIGYGKLIPIGPLANTLVTLEALCGMLGMAVAASLIYARFTRPTAGVLFSSRMVISDFEGKPTLMMRLANLRIEQIIEADVHLVLVRSEISQEGMVFRRFHDLTLTRSRSPIFSLSWTVMHPIDHHSPIYGETDETLRNSHSEFLVLFTGHHEAFAQNVHARHAYSSDEIIWGGHFVDVFTTLPDGRRALDLGKFHEIAQ
notes: KirBac3.1 with L124M on the SCS (C71S-C262S) background; Mutant cDNA bought from Genscript; also called Leu124M; source: E. coli C41(DE3), purified (Co2+ IMAC, Superdex 200 SEC, in DDM)
binding result [4]: binds

B5: KirBac3.1-SCS derivatised with decyl-MTS at Cys119 (natural protein)
chain: MTGGMKPPARKPRILNSDGSSNITRLGLEKRGWLDDHYHDLLTVSWPVFITLITGLYLVTNALFALAYLASGDVIENARPGSFTDAFFFSVQTMATIGYGKLIPIGPLANTLVTLEALCGMLGLAVAASLIYARFTRPTAGVLFSSRMVISDFEGKPTLMMRLANLRIEQIIEADVHLVLVRSEISQEGMVFRRFHDLTLTRSRSPIFSLSWTVMHPIDHHSPIYGETDETLRNSHSEFLVLFTGHHEAFAQNVHARHAYSSDEIIWGGHFVDVFTTLPDGRRALDLGKFHEIAQ
modifications: decyl chain from decyl-methylthiosulfonate on Cys119
notes: KirBac3.1 on the otherwise cysteine-less SCS background (C71S-C262S), native Cys119 kept and derivatised; also called C119-decyl; source: E. coli C41(DE3), purified, reacted with decyl-MTS, re-purified by SEC
binding result [5]: binds
